In publication PMC12112554, “Estrogen-Related Receptor Potential Target Genes in Silkworm (Bombyx mori): Insights into Metabolic Regulation”:

T1: BmERR DBD (Bombyx mori, UniProt A0A1B1M0R7 103-178)
T1 sequence: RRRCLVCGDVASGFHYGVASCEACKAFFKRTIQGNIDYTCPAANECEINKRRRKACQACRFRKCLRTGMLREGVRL

B1: Tret1 CRE3 (dsDNA)
DNA 1: GCGGACTCACAAGGTCCTACCA
DNA 2: TGGTAGGACCTTGTGAGTCCGC
B2: Akr2e CRE2 (dsDNA)
DNA 1: ACTAGTTAAGGTTACGCTGA
DNA 2: TCAGCGTAACCTTAACTAGT
B3: Ca7 CRE4 (dsDNA)
DNA 1: ATTCAATAGGTTATTTCT
DNA 2: AGAAATAACCTATTGAAT
B4: Ca7 CRE1 (dsDNA)
DNA 1: TAATGTGACTTTGAATCG
DNA 2: CGATTCAAAGTCACATTA
B5: FAH CRE1 (dsDNA)
DNA 1: TTTTTCCAAGGACGTTTGAG
DNA 2: CTCAAACGTCCTTGGAAAAA
B6: GlyP CRE3 (dsDNA)
DNA 1: ACGTCCAACGTCAAACCA
DNA 2: TGGTTTGACGTTGGACGT
B7: GK CRE3 (dsDNA)
DNA 1: GATTGTCAATGTCAATGTCATGAACA
DNA 2: TGTTCATGACATTGACATTGACAATC
B8: Atgl CRE3 (dsDNA)
DNA 1: CGCTCTGACATTGAAAAG
DNA 2: CTTTTCAATGTCAGAGCG
B9: Ca7 CRE3 (dsDNA)
DNA 1: GACTTCGAATGTCATGTCGC
DNA 2: GCGACATGACATTCGAAGTC
B10: Chsy1 CRE1 (dsDNA)
DNA 1: TCTCACAAGGTTGATGTC
DNA 2: GACATCAACCTTGTGAGA
B11: UGT46A2 CRE2 (dsDNA)
DNA 1: TCGTCGTAACCTTAAAGATA
DNA 2: TATCTTTAAGGTTACGACGA
B12: GK CRE1 (dsDNA)
DNA 1: CCCCATGACCTTCGCCGG
DNA 2: CCGGCGAAGGTCATGGGG
B13: HPD CRE2 (dsDNA)
DNA 1: GGACTATAACCTCGTCTCTT
DNA 2: AAGAGACGAGGTTATAGTCC
B14: Acyl CRE1 (dsDNA)
DNA 1: TATATTGCCCTTGTAAGT
DNA 2: ACTTACAAGGGCAATATA
B15: Ca7 CRE2 (dsDNA)
DNA 1: TTTATTGCCCTTGTAGGC
DNA 2: GCCTACAAGGGCAATAAA
B16: TPS CRE3 (dsDNA)
DNA 1: GGCTGTAACCTTGTCCTC
DNA 2: GAGGACAAGGTTACAGCC
B17: Aldh1b1 CRE3 (dsDNA)
DNA 1: CCTGGTTAAGGTTAGAAGTC
DNA 2: GACTTCTAACCTTAACCAGG
B18: HPD CRE1 (dsDNA)
DNA 1: ACACGCGCCCTTTATATA
DNA 2: TATATAAAGGGCGCGTGT
B19: HPD CRE3 (dsDNA)
DNA 1: TCCACAAACGTCAATAGC
DNA 2: GCTATTGACGTTTGTGGA
B20: UGT33D8 CRE2 (dsDNA)
DNA 1: TCAGGCAAGGTCAAAGCC
DNA 2: GGCTTTGACCTTGCCTGA
B21: Tret1 CRE2 (dsDNA)
DNA 1: TTTTTGTAACCTTAAACTCCT
DNA 2: AGGAGTTTAAGGTTACAAAAA
B22: Tret1 CRE1 (dsDNA)
DNA 1: AGCTTCTCCTTGACGTGTAG
DNA 2: CTACACGTCAAGGAGAAGCT

The binders below were run against T1, BmERR DBD (assay: EMSA; listed in Table 2; text names only CRE1 and CRE2; EMSA, Beyotime kit buffer (composition not given), 25 °C 25 min; 5% native PAGE in 1x TBE (45 mM Tris-borate, 1 mM EDTA, pH 8.3)). Details: protein: recombinant; label: biotin 3'; blunt.

**Q.** Does B1 bind?
**A.** binds

What follows are binders tested against T1, BmERR DBD (assay: EMSA; EMSA, Beyotime kit buffer (composition not given), 25 °C 25 min; 5% native PAGE in 1x TBE (45 mM Tris-borate, 1 mM EDTA, pH 8.3)). Details: protein: recombinant; label: biotin 3'; blunt.

**Q.** Does B2 bind?
**A.** binds

**Q.** Does B3 bind?
**A.** binds

**Q.** Does B4 bind?
**A.** binds

**Q.** Does B5 bind?
**A.** binds

**Q.** Does B6 bind?
**A.** binds

**Q.** Does B7 bind?
**A.** binds

**Q.** Does B8 bind?
**A.** binds

**Q.** Does B9 bind?
**A.** binds

**Q.** Does B10 bind?
**A.** binds

**Q.** Does B11 bind?
**A.** binds

**Q.** Does B12 bind?
**A.** binds

**Q.** Does B13 bind?
**A.** binds

**Q.** Does B14 bind?
**A.** binds

**Q.** Does B15 bind?
**A.** binds

**Q.** Does B16 bind?
**A.** binds

**Q.** Does B17 bind?
**A.** binds

**Q.** Does B18 bind?
**A.** binds

**Q.** Does B19 bind?
**A.** binds

**Q.** Does B20 bind?
**A.** binds

These binders were tested against T1, BmERR DBD (assay: EMSA; not among Table 2 motifs; EMSA, Beyotime kit buffer (composition not given), 25 °C 25 min; 5% native PAGE in 1x TBE (45 mM Tris-borate, 1 mM EDTA, pH 8.3)). Details: protein: recombinant; label: biotin 3'; blunt.

**Q.** Does B21 bind?
**A.** binds

**Q.** Does B22 bind?
**A.** binds
